From the RNAGym collection of RNA variant scans (doi:10.7554/elife.90254)

B1: LINE1-full (parent)
chain: UACGUAGGUGGUUUUCCCCUGAUAGUGCUAAGGGGGCCUGGAAGUUUGGACUGGGCAGAGCUCAACACAGCGUGGCAAAGUGGCUGUGGCUAGACUGCCUCUCUGGAUUCCUCGUCACUCAGCAGGGCAUCUCUGAGAGAAAUGCC

Variants of: B1
Test: self-cleavage, relative activity (ratio to wild type); higher = more cleavage; in vitro, sequencing; the parent is a self-cleaving ribozyme

Variant | self-cleavage
UACGUAGGUGGUUUUCCCCUGAUAGUGCUAAGGGGGCCUGGAAGUUUGGACUGGGCAGAGCUCAACUCAGCGUGGCAAAGUGGCUGUGGCUAGACUGCCUCUCUGGAUCCCUCGUCACUCAGCAGGGCAUCUCUGAGAGAAAUGCC | 0.04
UACGUAGGUGGUUUUCCCCUGAUAGUGCUAAGGGGUCCUGGAAGUUUGGACCGGGCAGAGCUCAACACAGCGUGGCAAAGUGGCUGUGGCUAGACUGCCUCUCUGGAUUCCUCGUCACUCAGCAGGGCAUCUCUGAGAGAAAUGCC | 1.19
UACGUAGGUGGUUUUCCCCUGAUAGUGCUAAGGGGGCCUGGAAGUUUGGACUGGGCAGAGCUCAACACAGCGAGGCAAAGUGGCUGUGGCUAGACUGCCUCUCUGGAUUCCUCGUCACUCAGCAGGGCAUCUCUGAGAAAAAUGCC | 1.47
UACGUAGGUGGUUUUCCCCUGAUAGUGCUAAGGGGGCCUGGAAGUCUGGACUGGGCAGAGCUCAACACAGCGUGGCAAAGUGGCUGUGGCUAGACUGCCUCACUGGAUUCCUCGUCACUCAGCAGGGCAUCUCUGAGAGAAAUGCC | 1.09
UACGUAGGUGGUUUUCCCCUGAUAGUGCUAAGGGGGCCUGGAAGUUUGGACUGGGCAGAGCUCAACAUAGCGUGGCAAAGUGGCUGUGGCUAGACUGCCUCUCUGGAUUCCUCGACACUCAGCAGGGCAUCUCUGAGAGAAAUGCC | 0.2
UACGUAGGUGGUUUACCCCUGAUAGUGCUAGGGGGGCCUGGAAGUUUGGACUGGGCAGAGCUCAACACAGCGUGGCAAAGUGGCUGUGGCUAGACUGCCUCUCUGGAUUCCUCGUCACUCAGCAGGGCAUCUCUGAGAGAAAUGCC | 0.55
UACGUAGGUGGUUUUCCCCUGAUAGUGCCAAGGGGGCCUGGAAGUUUGGACUGGGCAGAGCUCAACACAGCGUGGCAAAGUGGCUGUGGCUAGACUGCCUCUCUGGAUUCCUCGUCACUCAGCAGGGCAUCUCAGAGAGAAAUGCC | 0.89
UACGUAGGUGGUUUUCCCCUGAUAGUGCUAAGGGGGCUUGGAAGUUUGGACUGGGCAGAGCUCAACUCAGCGUGGCAAAGUGGCUGUGGCUAGACUGCCUCUCUGGAUUCCUCGUCACUCAGCAGGGCAUCUCUGAGAGAAAUGCC | 0.07
UACGUAGGUGGUUUUCCCCUGAUAGGGCUAAGGGGGCCUGGAAGUUUGGACUGGGCAGAGCUCAACACAGCGUGGCAAAGUGGCCGUGGCUAGACUGCCUCUCUGGAUUCCUCGUCACUCAGCAGGGCAUCUCUGAGAGAAAUGCC | 0.14
UACGUAGGAGGUUUUCCGCUGAUAGUGCUAAGGGGGCCUGGAAGUUUGGACUGGGCAGAGCUCAACACAGCGUGGCAAAGUGGCUGUGGCUAGACUGCCUCUCUGGAUUCCUCGUCACUCAGCAGGGCAUCUCUGAGAGAAAUGCC | 1.1
UACGUAGGUGGUUUUCCCCUGAUAGUGCUAAGGGGGCCUGGAAGUUUGGACUGGGCAGAGCUCAACACAGCGUGGCAAAGUGGCUGUGGCUAGACUGCCUCUCUGGAUUCCUCGUCACUCAGCGGGACAUCUCUGAGAGAAAUGCC | 1.15
UACGUAGGUGGUUUUCCCCUGAUAGUGCUAAGGGGGCCUGGAAGUUUGGACUGGGCAGAGCUCAACACAGCGUGGCAAAGUGGCUGUGGUUAGACUGCCUCUCUGGACUCCUCGUCACUCAGCAGGGCAUCUCUGAGAGAAAUGCC | 0.03
UACGUAGGUGGUUUUCCCUUGAUAGUGCUAAGGGGGCCUGGAAGUUUGGACUGGGCAGAGCUCAACACAGCCUGGCAAAGUGGCUGUGGCUAGACUGCCUCUCUGGAUUCCUCGUCACUCAGCAGGGCAUCUCUGAGAGAAAUGCC | 1.31
UACGUAGGUGGUUUUCCCCUGAUAGUGCUAGGGGGGCCUGGAAGUUUGGACUGGGCAGAGCUCAACACAGCGUGGCAAAGUGGCUGUGGCUUGACUGCCUCUCUGGAUUCCUCGUCACUCAGCAGGGCAUCUCUGAGAGAAAUGCC | 0.91
UACGUAGUUGGUUUUCCCCUGAUAGUGCUAAGGGGGCCUGGAAGUUUGGACUGGGCAGAGCUCAACACAGCGUGGCAAAGUGGCUGUGGCUAGACUGCCUCUCUGGAUUCCUCGUCACUCAGCAGGGCAUCUCUGAGAGAAAAGCC | 2.02
UACGUAGGUGGUUUUCCCCUGAUGGUGCUAAGGGGGCCUGGAAGUUUGGACUGGGCAGAGCUCAACACAGCGUGGCAUAGUGGCUGUGGCUAGACUGCCUCUCUGGAUUCCUCGUCACUCAGCAGGGCAUCUCUGAGAGAAAUGCC | 2.33
UACGUAGGUGGUUUUCCCCUGAUAGUGCUAAGGGGGCCUGGAAGUUUGGACUGGGCAGAGCUCAACUCAGCGUGGCAAAGUGGCUGUGGCUAGACUGCCUCUCAGGAUUCCUCGUCACUCAGCAGGGCAUCUCUGAGAGAAAUGCC | 0.03
UACGUAGGUGGUUUUCCCCCGAUAGUGCUAAGGGGGCCUGGAAGUUCGGACUGGGCAGAGCUCAACACAGCGUGGCAAAGUGGCUGUGGCUAGACUGCCUCUCUGGAUUCCUCGUCACUCAGCAGGGCAUCUCUGAGAGAAAUGCC | 1.57
UACGUAGGUGGUUUUCCCCUGAUAGUGCUUAAGGGGCCUGGAAGUUUGGACUGGGCAGAGCUCAACACAGCGUGGCAAAGUGGCUGUGGCUAGACUGCCUCUCUGGAUUCCUCGUCACUCAGCAGGGCAUCUCUGAGAGAAAUGCC | 0.89
UACGUAGGUGGUUUUCCCCUGAUAGUGCUAAGGGGGCCUGGAAGUCUCGACUGGGCAGAGCUCAACACAGCGUGGCAAAGUGGCUGUGGCUAGACUGCCUCUCUGGAUUCCUCGUCACUCAGCAGGGCAUCUCUGAGAGAAAUGCC | 1.2

Variant | self-cleavage
UACGUAGGUGGUUUUCCCCUGAUAGUGCUAAGGGGGCCUGGAAGUUUGGACUGGGCAGGGCUCUACACAGCGUGGCAAAGUGGCUGUGGCUAGACUGCCUCUCUGGAUUCCUCGUCACUCAGCAGGGCAUCUCUGAGAGAAAUGCC | 0.08
UACGUAGGUGGUUUUCCCCUGAUAGUGCUAAGGGGGCCUGGAAGUUUGGACUGGGCAGAGCUCAACACAGCGUGGCAAAGUGGCUGUGGCUAGGCUGCCUCUCUGGAUUCCUCGUCACUCAGCAGGGCAUCUCUGAGAGAAAUGCU | 0.47
UACGUAGGUGGUUUUCCCCUGAUAGUGCUAAGGGGGCCUGGAAGUUUGGACUGGGCAGAGCUCAACACAGCGUGGCAAAGUGGCUGUGGCUAGACUGCCUUUCUGGAUUCCUCGUCACUCAGCAGGGCAUCUCUGAGGGAAAUGCC | 1.69
UACGUAGGUGGUUUUCCCCUGAUAGUGCUAAGGGGGCCUGGAAGUUUGGACUGGGCAGAGCUCAACACAGCGUGGCAAAGUGGCUGUGGCUAGACUGCCUCUCUGGAUUCCUCGUCACUCAGUAGGGCAACUCUGAGAGAAAUGCC | 1.72
UACGUAGGUGGUUUUCCCCUGAUAGUGCUAAGGGGGCCUGGAAGUUUGGACUGGGCAGAGCUCAACACAGCGUGGCAAAGUGGCUGUGGCUAGACUGCCUCUCUGGAUUCCCCGUCACUCAGCAGGGCAUCGCUGAGAGAAAUGCC | 1.53
UACGCAGGUGGUUUUCCCCUGAUAGUGCUAAGGGGGCCUGGAAGUUUGGACUGGGCAGAGCUCAACACAGCGUGGCAAAGUGGCUGUGGCUAGACUGCCUCUCUGGAUUCCACGUCACUCAGCAGGGCAUCUCUGAGAGAAAUGCC | 1.15
UACGUAGGUGGUUUUCCCCUGAUAGUGCUAAGGGGGCCUGGAAGUUUGGACUGGGCAGAGCUCAACACAGCGUGGCAAAGUGGCUGUGGCUAGACUGCCUCUCUGGAUUCCUCGUCACCCAGCAGGGCAUCUCUGAGAGAGAUGCC | 1.87
UACGAAGGUGGUUUUCCCCUGAUAGUGCUAAGGGGGCCUGGAAGUUUGGACUGGGCAGGGCUCAACACAGCGUGGCAAAGUGGCUGUGGCUAGACUGCCUCUCUGGAUUCCUCGUCACUCAGCAGGGCAUCUCUGAGAGAAAUGCC | 0.11
UACGUAGGUGGUUUUCCCCUGAUAGUGCUAAGGGGACCUGGAAGUUUGGACUGGGCAGAGCUCAACACAGCGUGGCAAAGUGGCUGUGGCUAGACUGCCUCUCUGGAUUCCUCGUCACCCAGCAGGGCAUCUCUGAGAGAAAUGCC | 2.42
UACGUAGGUGGUUUUCCCCUGAUAGUGCUAAGGGGGCCUGGAAGUUUGGACUGGGCAGAGCUCAACACAGCGUGGCAAAGUGGUUGUGGCUAGACUGCCUCUCUGGAUUCCUCGUCACUCAGCAGGGCAUCUCCGAGAGAAAUGCC | 0.19
UACGUAGGUGGUUUUCCCCUGAUAGUGCUAAGGGGGCCUGGAAGUUUGGACUGGGCAGGGCUCAACACAGCGUGGCAAUGUGGCUGUGGCUAGACUGCCUCUCUGGAUUCCUCGUCACUCAGCAGGGCAUCUCUGAGAGAAAUGCC | 0.07
UACGUAGGUGGUUUUCCCCUGUUAGUGCUAAGGGGGCCUGGAAGUUUGGGCUGGGCAGAGCUCAACACAGCGUGGCAAAGUGGCUGUGGCUAGACUGCCUCUCUGGAUUCCUCGUCACUCAGCAGGGCAUCUCUGAGAGAAAUGCC | 1.01
UACGUAGGUGGUUUUCCCCUGAUAGUGCUAAAGGGGCCUGGAAGUUUGGACUGGGCAGAGCUCAACACUGCGUGGCAAAGUGGCUGUGGCUAGACUGCCUCUCUGGAUUCCUCGUCACUCAGCAGGGCAUCUCUGAGAGAAAUGCC | 0.02
UACGUAGGUGGUUUUCCCCUGAUGGUGCUAAGGGGGCCUGGAAGUUUGGACUGGGCAGAGCUCAACACAGCGUGGCAAAGUGGCUGUGGCUAGACUGCCUCUCUGGAUUCCUCGUCACUCAGCAGGGCAUCUCUGAGAGAAGUGCC | 1.1
UACGUAGGUGGUCUUCCCCUGAUAGUGCUAAGGGGGCCUGGAAGUUUGGACUGGGCAGAGCUCAACACAGCGUGGCAAAGUGGCUGUGGCUAGACUGCCACUCUGGAUUCCUCGUCACUCAGCAGGGCAUCUCUGAGAGAAAUGCC | 0.7
UACGUAGGUGGUUUUCCCCUGAUAGUGCUAAGGGGGCCUGGAAGUUUGGACUGGGCAGAGCUCAACACAGCGUGGCAAAGUGGCCGUGGCUAGGCUGCCUCUCUGGAUUCCUCGUCACUCAGCAGGGCAUCUCUGAGAGAAAUGCC | 0.07
UACGUAGGUGGUUUUCCCCUGAUAGUGCUGAGGGGGCCUGGAAGUUUGGACUGGGCAGAGCUCAACACAGCGUGGCAAAGUGGCUGUGGCUAGACUGCCUCUCUGGACUCCUCGUCACUCAGCAGGGCAUCUCUGAGAGAAAUGCC | 0.5
UUCGUAGGUGGUUUUCCCCUGAUAGUGCUAAGGGGGCCUGGAAGUUUGGACUGGGCAGGGCUCAACACAGCGUGGCAAAGUGGCUGUGGCUAGACUGCCUCUCUGGAUUCCUCGUCACUCAGCAGGGCAUCUCUGAGAGAAAUGCC | 0
UACGUAGGUGGUUUUCCCCUGAUACUGCUAAGGGGGCCUGGAAGUUUGGACUGGGCAGAGCUCAACACAGCGUGGCAAAGUGGCUGUGGCUAGACUGGCUCUCUGGAUUCCUCGUCACUCAGCAGGGCAUCUCUGAGAGAAAUGCC | 0.25
